Test results taken from publication PMC7673798 (Science Advances, 2020).

Target: the molecule itself
Experiment: cryo-EM structure

B1: OpuA polypeptide with the nucleotide-binding domain (NBD) fused to a tandem CBS domain, E190Q (natural protein, Lactococcus lactis, UniProt Q9KIF7 1-408, looked up)
chain: MPVKIKIEHLTKIFGKRIKTALTMVEKGEPKNEILKKTGATVGVYDTNFEINEGEIFVIMGLSGSGKSTLLRLLNRLIEPTSGKIFIDNQDVATLNKEDLLQVRRKTMSMVFQNFGLFPHRTILENTEYGLEVQNVPKEERRKRAEKALDNANLLDFKDQYPKQLSGGMQQRVGLARALANDPEILLMDQAFSALDPLIRREMQDELLELQAKFQKTIIFVSHDLNEALRIGDRIAIMKDGKIMQIGTGEEILTNPANDYVKTFVEDVDRAKVITAENIMIPALTTNIDVDGPSVALKKMKTEEVSSLMAVDKKRQFRGVVTSEQAIAARKNNQPLKDVMTTDVGTVSKEMLVRDILPIIYDAPTPLAVVDDNGFLKGVLIRGSVLEALADIPDEDEVEEIEKEEENK
  binding result: binds
